# Source: US20120027722A1
# Tests used:
# [1] = target: HCV E1E2 glycoproteins, genotype 2a (J6) (Hepatitis C virus genotype 2a (J6)); experiment: cell-based or functional assay
# [2] = target: HCV E1E2 glycoproteins, genotype 1b (Con1) (Hepatitis C virus genotype 1b (Con1)) (UniProt Q9WMX2); experiment: cell-based or functional assay
# [3] = target: Peptide D3; settings: remark: other sources report otherwise
# Chain of HCV E1E2 glycoproteins, genotype 1b (Con1) (Hepatitis C virus genotype 1b (Con1)) (Q9WMX2 192-383 limits assumed, chain 1 of 2): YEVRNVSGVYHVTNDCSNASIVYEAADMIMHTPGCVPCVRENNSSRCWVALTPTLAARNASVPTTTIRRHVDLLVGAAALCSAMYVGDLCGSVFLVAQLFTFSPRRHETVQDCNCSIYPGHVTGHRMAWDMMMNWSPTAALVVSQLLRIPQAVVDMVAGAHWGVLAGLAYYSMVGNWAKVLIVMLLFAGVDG
# Chain of HCV E1E2 glycoproteins, genotype 1b (Con1) (Hepatitis C virus genotype 1b (Con1)) (Q9WMX2 384-746 limits assumed, chain 2 of 2): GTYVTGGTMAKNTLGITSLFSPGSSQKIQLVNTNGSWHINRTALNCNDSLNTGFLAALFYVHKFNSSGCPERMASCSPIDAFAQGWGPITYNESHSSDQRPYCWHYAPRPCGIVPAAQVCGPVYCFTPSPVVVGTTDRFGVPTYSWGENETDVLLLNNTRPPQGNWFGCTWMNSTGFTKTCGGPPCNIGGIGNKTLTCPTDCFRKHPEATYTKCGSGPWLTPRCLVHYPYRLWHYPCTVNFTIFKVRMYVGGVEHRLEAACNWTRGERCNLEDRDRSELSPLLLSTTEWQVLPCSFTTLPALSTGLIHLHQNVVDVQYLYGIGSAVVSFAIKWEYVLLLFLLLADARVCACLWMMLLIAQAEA
binder,measurement,setting,value
"AP33 antibody (as used in Example 2) (antibody, V domains shown) VH: EVQLQESGPSLVKPSQTLSLTCSVTGDSITSGYWNWIRKFPGNKLEYMGYISYSGSTYYNLSLRSRISITRDTSKNQYYLQLNSVTTEDTATYYCALITTTTYAMDYWGQGTSVTVS VL: NIVLTQSPVSLAVSLGQRATISCRASESVDGYGNSFLHWFQQKPGQPPKLLIYLASNLNSGVPARFSGSGSRTDFTLTIDPVEADDAATYYCQQNNVDPWTFGGGTKLEIK","EC50, neutralization of J6 HCVpp entry (Huh-7.5, luciferase)",[1],2.07 µg/mL
same,"EC50, neutralization of Con1 HCVpp entry (Huh-7.5, luciferase)",[2],1.42 µg/mL
"chimeric AP33 antibody (Vh/Vl) (antibody, V domains shown) VH: EVQLQESGPSLVKPSQTLSLTCSVTGDSITSGYWNWIRKFPGNKLEYMGYISYSGSTYYNLSLRSRISITRDTSKNQYYLQLNSVTTEDTATYYCALITTTTYAMDYWGQGTSVTVS VL: NIVLTQSPVSLAVSLGQRATISCRASESVDGYGNSFLHWFQQKPGQPPKLLIYLASNLNSGVPARFSGSGSRTDFTLTIDPVEADDAATYYCQQNNVDPWTFGGGTKLEIK",EC50 (read off the curve),[3],0.02 µg/mL
